Source: publication PMC9908901, “Identification of a tomato UDP-arabinosyltransferase for airborne volatile reception” (Nature Communications, 2023)

Columns and labels:
Experiment in all cases: steady-state kinetics, HPLC-MS of glycoside product
Format in all cases: biochemical, Solanum lycopersicum
[1] = substrate: O=c1ccn([C@@H]2O[C@H](COP(=O)(O)OP(=O)(O)O[C@H]3OC[C@@H](O)[C@H](O)[C@H]3O)[C@@H](O)[C@H]2O)c(=O)[nH]1; conditions: HexGlc fixed as acceptor, 50 mM potassium phosphate pH 7.5, 30 °C
Excerpt: (§1) steady-state kinetics, HPLC-MS of glycoside product on UGT91R1

[2] = substrate: CC/C=C\CCO[C@@H]1O[C@H](CO)[C@@H](O)[C@H](O)[C@H]1O; conditions: UDP-arabinose fixed as donor, 50 mM potassium phosphate pH 7.5, 30 °C
Excerpt: as §1

[3] = substrate: O=c1ccn([C@@H]2O[C@H](COP(=O)(O)OP(=O)(O)O[C@H]3OC[C@H](O)[C@H](O)[C@H]3O)[C@@H](O)[C@H]2O)c(=O)[nH]1; conditions: HexGlc fixed as acceptor, 50 mM potassium phosphate pH 7.5, 30 °C
Excerpt: as §1

B1: UGT91R1 (Solanum lycopersicum) (protein)
chain: MAENGKKLHIAVFPWLAFGHMIPYLELSKLIAQKGHKISFISTPRNIDRLPKLPPNLTPFLNFVKLPMPHVEKLPENAEATIDLPYEQVKYLKLAQDALQESMSKFIEDSDIDFILFDFTSYWVPSIASKFNIPSGYFSIFIAAFLGFTGPVPGLNNDYEIRMTPEEYTVTPKWVPFETTVAFKLFEVSRIFEASMKGEEENIADIVRYYRSVENCDFLLVRSCSEFEPEWLKVVGDIHRKPVFPVGQLPTTPYEDDSTKIDAWREIKLWLDKQEKGKVIYVAFGSEAKPSQNELTELSLGLELSGLPFFWVLRIKRGESDDELIQLPEGFEERTKGRGIVCTSWAPQLKILSHDSVGGFLTHSGWSSVVEAIQFEKSLVLLTFLADQGINARLLEEKKMAYSIPRNDQDGSFTRDSVAESLNLVLVKEEGFIYREKIKEMKDLFCDKKRQNNYVENLLSFLQDYEKIKA
notes: full length, synthetic cDNA in pET15b, E. coli BL21(DE3), HisTrap purified
For B1, the Km [1] was 603 ± 75 µM, the kcat [1] was 1.8 ± 0.1 s⁻¹ and the kcat/Km [1] was 3000 ± 400 M⁻¹ s⁻¹. For the same protein, the Km [2] was 5.9 ± 0.5 µM, the kcat [2] was 0.33 ± 0.009 s⁻¹ and the kcat/Km [2] was 57000 ± 5000 M⁻¹ s⁻¹. For the same protein, the Km [3] was 38 ± 4 µM, the kcat [3] was 1.9 ± 0.1 s⁻¹ and the kcat/Km [3] was 51000 ± 5000 M⁻¹ s⁻¹.
